Test results from patent US7250195B1, “Molecular plasma deposition of colloidal materials” (Ionic Fusion Corporation, priority 2006, dated 2007).
In brackets after ≈: the same amount, converted by molar mass. One block for each molecule: values may come before it.

Legend:
[1] = cited from earlier work
[2] = activity of the catalase colloidal suspension before deposition; format: biochemical, bovine; conditions: colloidal suspension in water with 0.1% thymol, protein 33 mg/ml
Protocol: 25 ml of a 2× crystallized bovine liver catalase (Sigma C100-58MG; 056K7010) colloidal suspension in water with 0.1% thymol was prepared. Protein concentration was 33 mg/ml with an activity of 4.1×10^4 U/ml.

[3] = catalysis of 5% hydrogen peroxide solution by plasma-deposited catalase coating; format: biochemical, bovine; conditions: for catalytic activity after molecular plasma deposition: deposited 10 min on aluminum oxide disk, placed in 5% hydrogen peroxide
Description: Using the apparatus illustrated in FIG. 2, the high voltage power supply was attached to a 304 stainless steel, 18 gauge needle set at −5000V. The substrate was an aluminum oxide disk ¼″ thick by 1.5″ in diameter, having an area of approximately 11 sq cm and set at a potential of 5000 V. The substrate was centered and placed 5 cm from the hole in the chamber. The chamber was pumped to 40 mTorr and the flow of the colloidal suspension initiated. The deposition onto the substrate was allowed to proceed for 10 minutes. At the end of the deposition process, the substrate was removed from the chamber and the sample was placed in a 5% solution of hydrogen peroxide.
The deposition was repeated twice under the same conditions, except that after the substrate was removed from the chamber, the samples were placed in an ultrasonic water bath for 10 min. Additionally, one of the samples was maintained at 10° C. for 72 hr after removal from the bath.

Molecule: Nc1cc[nH]c(=O)n1 [cytosine]
water solubility [1]: insoluble

Molecule: Nc1ncnc2nc[nH]c12 [adenine]
water solubility [1]: 500 µg/mL (≈ 3.7 mM)

Molecule: NCCCC[C@H](N)C(=O)O [Lysine]
water solubility (in words) [1]: highly water soluble

Molecule: Nc1nc2nc[nH]c2c(=O)[nH]1 [guanine]
water solubility [1]: insoluble

activity of suspension [2]: 4.1×10^4 U/ml | catalytic activity after molecular plasma deposition ([3]; listed as Catalase): without loss of catalytic activity
B1: catalase: 2× crystallized bovine liver catalase (Sigma C100-58MG; 056K7010), a polypeptide enzyme (protein, UniProt P00432 2-527, looked up)
Catalase: ADNRDPASDQMKHWKEQRAAQKPDVLTTGGGNPVGDKLNSLTVGPRGPLLVQDVVFTDEMAHFDRERIPERVVHAKGAGAFGYFEVTHDITRYSKAKVFEHIGKRTPIAVRFSTVAGESGSADTVRDPRGFAVKFYTEDGNWDLVGNNTPIFFIRDALLFPSFIHSQKRNPQTHLKDPDMVWDFWSLRPESLHQVSFLFSDRGIPDGHRHMNGYGSHTFKLVNANGEAVYCKFHYKTDQGIKNLSVEDAARLAHEDPDYGLRDLFNAIATGNYPSWTLYIQVMTFSEAEIFPFNPFDLTKVWPHGDYPLIPVGKLVLNRNPVNYFAEVEQLAFDPSNMPPGIEPSPDKMLQGRLFAYPDTHRHRLGPNYLQIPVNCPYRARVANYQRDGPMCMMDNQGGAPNYYPNSFSAPEHQPSALEHRTHFSGDVQRFNSANDDNVTQVRTFYLKVLNEEQRKRLCENIAGHLKDAQLFIQKKAVKNFSDVHPEYGSRIQALLDKYNEEKPKNAVHTYVQHGSHLSAREKANL
catalytic activity after deposition and ultrasonic water bath ([3]; coated sample in ultrasonic water bath 10 min, then 5% hydrogen peroxide): produced bubbling of oxygen from the surface of the substrate | catalytic activity after molecular plasma deposition [3]: producing bubbling of oxygen from the surface | catalytic activity after deposition, ultrasonic water bath and storage ([3]; ultrasonic water bath 10 min, then 10° C. for 72 hr, then 5% hydrogen peroxide): produced bubbling of oxygen from the surface of the substrate
